For assay [1], the target named is yeast Vo proteolipid subunit c (Vma3p) (yeast (Saccharomyces cerevisiae), UniProt P25515). Nature of the assay: cryo-EM structure.
The target of assay [2] is T1, lipid nanodisc reconstituted yeast V-ATPase Vo proton channel subcomplex (VoND) (Saccharomyces cerevisiae (S288c-type …, UniProt P32563;P25515;P32842;P23968;P32366;Q3E7B6;P0C5R9;P53262)). Nature of the assay: cryo-EM structure.
The target in assay [3] is T1, lipid nanodisc reconstituted yeast …. Nature of the assay: BLI.
A further assay has as its target yeast Vo subunit d (yeast (Saccharomyces cerevisiae), UniProt P32366). The assay is described as follows: cryo-EM structure.

“And” between values parts separate entries of the source, which are not always exact repeats. Equal values may be shown once.

Sequence of yeast Vo proteolipid subunit c (Vma3p) (P25515 whole entry): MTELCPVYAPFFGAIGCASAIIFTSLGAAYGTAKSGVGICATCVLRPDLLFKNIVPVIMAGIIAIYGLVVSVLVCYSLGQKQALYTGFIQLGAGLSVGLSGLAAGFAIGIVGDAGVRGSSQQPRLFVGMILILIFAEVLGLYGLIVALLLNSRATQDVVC
Sequence of yeast Vo subunit d (P32366 whole entry): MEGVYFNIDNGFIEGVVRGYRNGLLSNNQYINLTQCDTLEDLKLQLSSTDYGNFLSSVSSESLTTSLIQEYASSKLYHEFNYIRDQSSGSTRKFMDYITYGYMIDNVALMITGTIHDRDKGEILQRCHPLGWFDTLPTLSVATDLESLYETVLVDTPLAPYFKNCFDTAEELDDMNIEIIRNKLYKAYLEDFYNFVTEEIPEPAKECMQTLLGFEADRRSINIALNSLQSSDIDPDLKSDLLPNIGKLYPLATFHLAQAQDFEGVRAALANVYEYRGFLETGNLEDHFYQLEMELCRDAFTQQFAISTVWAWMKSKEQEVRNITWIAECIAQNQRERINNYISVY

B1: Nanobody N27 (2WVA7) (VHH)
VHH: QVQLQESGGGLVEIGGSLRLSCAASGTLFTFNTMAWYRQAPGKQREFIATITSGGNTNYADSVQGRFTISRGNAKNTLYLQMNSLKPEDTAVYYCNARTMTGPFDYWGQGTQVTVSS
On to B1, for which, in assay [1], the binding result is “binds”. In assay [2], the “stoichiometry N” value is 8 N27 per VoND. The same molecule displayed a Kd in assay [3] of less than 0.001 nM.

B2: Nanobody N2149 (2WVA149) (VHH)
VHH: QVQLQESGGGLVQAGGSLRLSCAVSGSIFSGNAMDWYRQAPGKQRELVASLTSTGSTNYADSVKGRFTITRDNAKNTVYLQMNSLKPEDTAVYYCHALIYRSRLDLAPGNYWGQGTQVTVSS
Take B2: in the assay with yeast Vo subunit d, the binding result is listed as “binds”. In addition, the Kd in assay [3] is 0.09 ± 0.023 nM.

B3: Nanobody N125 (1WVA25) (VHH)
VHH: QVQLQESGGGLVQPGGSLRLSCVASGFTFSRYAMTWVRQAPGKGLEWVSDISSGGSSTFYTDSVKGRFTISRDNAKNTLYLQMNSLKPDDTAIYFCAKGVPSYYSDYERRSKRYDSRGQGTQVTVSS
B3: in assay [1], the binding result is given as “binds”. The “stoichiometry N” value in assay [2] was 4 N125 per VoND and 3 N125 per VoND. In assay [3], the Kd is 0.013 ± 0.001 nM.
